Test [1] addresses hemolysin B (HlyB), ABC transporter of the HlyA type I secretion system (E. coli) (UniProt P08716).
Test [2] addresses HlyB∆CLD, truncated HlyB lacking the N-terminal C39 peptidase-like domain (E. coli).
Test [3] deals with hemolysin B (HlyB), ABC transporter of the HlyA type I secretion system (E. coli) (UniProt P08716). The source holds these as a separate data set.

UniProt P08716, sequence (P08716 whole entry, the tested form may be a part): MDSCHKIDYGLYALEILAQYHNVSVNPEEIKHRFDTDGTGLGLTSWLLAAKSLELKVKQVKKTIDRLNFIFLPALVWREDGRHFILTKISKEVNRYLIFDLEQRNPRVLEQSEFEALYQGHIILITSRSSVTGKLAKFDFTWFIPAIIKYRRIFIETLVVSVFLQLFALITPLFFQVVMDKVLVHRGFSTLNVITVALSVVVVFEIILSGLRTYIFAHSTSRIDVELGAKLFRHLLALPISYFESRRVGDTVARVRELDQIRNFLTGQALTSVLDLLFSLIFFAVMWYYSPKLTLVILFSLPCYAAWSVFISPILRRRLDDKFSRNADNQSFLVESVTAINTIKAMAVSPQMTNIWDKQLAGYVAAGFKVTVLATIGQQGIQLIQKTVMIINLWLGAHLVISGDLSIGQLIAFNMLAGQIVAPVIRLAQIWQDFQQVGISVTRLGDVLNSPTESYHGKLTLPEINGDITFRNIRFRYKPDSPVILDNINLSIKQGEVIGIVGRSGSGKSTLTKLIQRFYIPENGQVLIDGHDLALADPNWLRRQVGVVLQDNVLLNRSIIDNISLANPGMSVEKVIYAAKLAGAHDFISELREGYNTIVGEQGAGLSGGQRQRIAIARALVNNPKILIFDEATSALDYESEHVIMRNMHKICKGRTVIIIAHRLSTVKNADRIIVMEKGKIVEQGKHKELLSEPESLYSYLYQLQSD

For the substance “proHlyA, full-length hemolytically inactive (non-acylated) precursor form of hemolysin A (from UniProt P08715 1-1024) (natural protein)”, the inhibition of the basal ATPase activity of HlyB reconstituted with LPC/DOPC mixtures or LPC alone in saposin-A nanoparticles, with 10 µM unfolded proHlyA in test [1] stood at 40%. Besides, in test [2], the stimulation of the basal ATPase activity of HlyB∆CLD in LPC-saposin-A nanoparticles by folded proHlyA, 0-10 µM (Michaelis-Menten fit with substrate inhibition) came out at 2 fold and the stimulation of the basal ATPase activity of HlyB∆CLD in LPC-saposin-A nanoparticles by unfolded proHlyA, 0-10 µM, with strong substrate inhibition at higher concentrations is 4 fold. In test [3], this substance yielded an inhibition of the basal ATPase activity of HlyB in LPC-saposin-A nanoparticles by unfolded proHlyA, 0-10 µM, 4 mM ATP, 25 °C of 30% and a stimulation of ATP hydrolysis of HlyB in LPC-saposin-A nanoparticles by folded proHlyA (Ca2+), 0-10 µM, 4 mM ATP, 25 °C of 60%.

For the origin of these results see article PMC6558041.
